In patent US20220332804A1 (CSL INNOVATION, published 2022):

Assays:
Experiment in all cases: SPR, KD relative to WT C2;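 further: biacore SPR at 37 °C, anti-C2 mAbs captured via immobilised goat anti-human IgG, C2 alanine or serine surface mutants as analytes, 1:1 model fitted, double-referenced sensograms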
human C2 N325A = biological target: T1, human C2 N325A (human, UniProt P06681 21-752)
T1 sequence: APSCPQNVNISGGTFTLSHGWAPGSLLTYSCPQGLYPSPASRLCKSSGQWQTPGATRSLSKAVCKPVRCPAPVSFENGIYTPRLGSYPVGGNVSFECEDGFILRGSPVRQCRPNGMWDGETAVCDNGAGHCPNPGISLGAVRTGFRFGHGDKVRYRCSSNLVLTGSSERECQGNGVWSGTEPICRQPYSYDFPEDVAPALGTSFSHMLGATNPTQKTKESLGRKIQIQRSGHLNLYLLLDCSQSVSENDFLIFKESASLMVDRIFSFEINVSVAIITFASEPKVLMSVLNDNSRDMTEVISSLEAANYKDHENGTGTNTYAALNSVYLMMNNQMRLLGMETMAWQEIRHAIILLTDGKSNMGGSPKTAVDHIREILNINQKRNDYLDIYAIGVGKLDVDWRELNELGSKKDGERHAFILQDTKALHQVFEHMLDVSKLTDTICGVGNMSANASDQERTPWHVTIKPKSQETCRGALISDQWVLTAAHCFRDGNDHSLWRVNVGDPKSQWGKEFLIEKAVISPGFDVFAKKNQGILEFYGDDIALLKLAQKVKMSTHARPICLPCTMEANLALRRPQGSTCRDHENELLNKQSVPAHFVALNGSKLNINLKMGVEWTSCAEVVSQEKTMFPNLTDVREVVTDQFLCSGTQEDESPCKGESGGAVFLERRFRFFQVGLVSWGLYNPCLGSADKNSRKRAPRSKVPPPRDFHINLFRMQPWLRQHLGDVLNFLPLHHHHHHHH

human C2 E433A = biological target: T2, human C2 E433A (human, UniProt P06681 21-752)
T2 sequence: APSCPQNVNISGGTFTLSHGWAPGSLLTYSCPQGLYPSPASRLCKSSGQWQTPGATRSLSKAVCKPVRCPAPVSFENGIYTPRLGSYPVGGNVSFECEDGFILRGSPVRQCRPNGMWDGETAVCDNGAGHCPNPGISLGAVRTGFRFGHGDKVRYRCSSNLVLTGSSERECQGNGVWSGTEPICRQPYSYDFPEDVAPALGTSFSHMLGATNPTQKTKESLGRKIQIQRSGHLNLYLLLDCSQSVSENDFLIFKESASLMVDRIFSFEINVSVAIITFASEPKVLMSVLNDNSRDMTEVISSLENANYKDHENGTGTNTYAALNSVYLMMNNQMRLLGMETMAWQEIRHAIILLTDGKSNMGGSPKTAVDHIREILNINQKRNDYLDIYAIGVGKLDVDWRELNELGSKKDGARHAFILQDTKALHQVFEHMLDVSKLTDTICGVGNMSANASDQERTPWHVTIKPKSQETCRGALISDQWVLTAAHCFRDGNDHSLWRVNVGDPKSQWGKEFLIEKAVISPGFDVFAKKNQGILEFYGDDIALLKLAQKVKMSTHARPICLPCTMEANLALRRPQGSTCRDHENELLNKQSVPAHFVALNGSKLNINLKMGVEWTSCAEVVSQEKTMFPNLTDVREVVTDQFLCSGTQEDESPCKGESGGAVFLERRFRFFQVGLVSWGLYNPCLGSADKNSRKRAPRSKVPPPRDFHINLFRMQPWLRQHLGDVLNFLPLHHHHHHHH

human C2 A444S = biological target: T3, human C2 A444S (human, UniProt P06681 21-752)
T3 sequence: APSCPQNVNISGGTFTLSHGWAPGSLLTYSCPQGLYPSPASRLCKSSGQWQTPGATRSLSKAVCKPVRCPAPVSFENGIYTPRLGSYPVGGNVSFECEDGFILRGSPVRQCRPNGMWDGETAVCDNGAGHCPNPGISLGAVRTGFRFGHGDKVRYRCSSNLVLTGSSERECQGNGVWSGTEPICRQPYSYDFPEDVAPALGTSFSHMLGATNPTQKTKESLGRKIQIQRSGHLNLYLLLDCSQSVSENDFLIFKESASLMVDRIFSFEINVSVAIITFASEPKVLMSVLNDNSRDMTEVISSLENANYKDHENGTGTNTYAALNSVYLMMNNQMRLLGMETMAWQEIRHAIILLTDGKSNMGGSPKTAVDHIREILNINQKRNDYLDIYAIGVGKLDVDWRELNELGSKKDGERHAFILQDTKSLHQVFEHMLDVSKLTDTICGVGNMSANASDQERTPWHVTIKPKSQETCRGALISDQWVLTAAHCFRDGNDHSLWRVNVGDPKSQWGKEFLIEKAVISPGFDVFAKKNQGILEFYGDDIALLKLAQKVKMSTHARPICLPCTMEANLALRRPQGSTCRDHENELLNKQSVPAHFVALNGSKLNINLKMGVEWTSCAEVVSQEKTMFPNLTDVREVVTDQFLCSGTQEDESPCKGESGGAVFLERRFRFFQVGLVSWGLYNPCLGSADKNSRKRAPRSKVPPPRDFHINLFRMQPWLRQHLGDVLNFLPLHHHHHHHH

human C2 Y558A = biological target: T4, human C2 Y558A (human, UniProt P06681 21-752)
T4 sequence: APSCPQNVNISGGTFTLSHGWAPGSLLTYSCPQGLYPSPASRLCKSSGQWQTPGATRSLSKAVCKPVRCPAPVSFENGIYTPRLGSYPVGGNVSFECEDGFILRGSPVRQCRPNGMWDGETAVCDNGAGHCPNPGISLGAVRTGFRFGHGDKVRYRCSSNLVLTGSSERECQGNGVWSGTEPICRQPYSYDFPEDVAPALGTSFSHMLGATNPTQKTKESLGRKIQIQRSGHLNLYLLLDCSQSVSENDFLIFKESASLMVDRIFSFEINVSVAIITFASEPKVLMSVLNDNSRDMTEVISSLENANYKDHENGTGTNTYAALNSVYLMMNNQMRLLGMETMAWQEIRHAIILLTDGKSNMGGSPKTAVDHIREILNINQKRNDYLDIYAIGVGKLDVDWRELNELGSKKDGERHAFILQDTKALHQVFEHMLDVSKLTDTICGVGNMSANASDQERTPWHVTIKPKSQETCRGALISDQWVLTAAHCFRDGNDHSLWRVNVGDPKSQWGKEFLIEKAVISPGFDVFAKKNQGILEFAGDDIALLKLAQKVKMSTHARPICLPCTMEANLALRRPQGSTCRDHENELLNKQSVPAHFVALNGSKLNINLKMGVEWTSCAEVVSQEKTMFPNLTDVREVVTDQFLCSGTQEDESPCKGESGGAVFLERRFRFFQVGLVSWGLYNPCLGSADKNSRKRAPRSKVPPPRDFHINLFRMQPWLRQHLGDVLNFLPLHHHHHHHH

B1: RF16-226 (antibody, human IgG4 S228P, lambda)
heavy: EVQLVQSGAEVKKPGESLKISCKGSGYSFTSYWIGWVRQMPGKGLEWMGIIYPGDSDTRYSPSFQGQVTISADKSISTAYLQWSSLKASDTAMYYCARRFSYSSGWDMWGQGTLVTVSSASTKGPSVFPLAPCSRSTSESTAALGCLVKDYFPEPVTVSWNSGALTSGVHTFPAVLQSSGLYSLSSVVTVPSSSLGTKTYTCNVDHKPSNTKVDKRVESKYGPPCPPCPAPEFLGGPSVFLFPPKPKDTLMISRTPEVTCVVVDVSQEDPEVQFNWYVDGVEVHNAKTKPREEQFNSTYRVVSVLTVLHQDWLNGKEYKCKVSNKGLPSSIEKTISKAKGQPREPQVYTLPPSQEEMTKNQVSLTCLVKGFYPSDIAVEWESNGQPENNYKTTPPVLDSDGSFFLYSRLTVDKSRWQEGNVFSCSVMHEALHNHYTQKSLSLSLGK
light: SYELTQPPSVSVSPGQTARITCSGDALTSKYVAWYQQKSGLAPLLVIYEDTRRPSGIPAKFSGSSSGSVATLTISGAHGDDEADYYCYSTDASGHQRVFGGGTKLTVLSQPKAAPSVTLFPPSSEELQANKATLVCLISDFYPGAVTVAWKADGSPVKAGVETTKPSKQSNNKYAASSYLSLTPEQWKSHRSYSCQVTHEGSTVEKTVAPTECS
notes: pH-dependent anti-C2 antibody from a phage display library; also called WT
Fold diff (human C2 N325A): 5 fold
Fold diff (human C2 E433A): 0 fold
Fold diff (human C2 A444S): 2 fold
Fold diff (human C2 Y558A): 16 fold
